In the supplement of paper PMC10065799, “High-throughput profiling of sequence recognition by tyrosine kinases and SH2 domains using bacterial peptide display” (eLife, 2023):

Key:
[1] = system: AncSZ; test: phosphorylation enrichment, bacterial display (enrichment ratio); higher = better substrate or ligand; peptides without Tyr show the background
[2] = target: EPHB1 (UniProt P54762); test: as above
[3] = target: EPHB2 (UniProt P29323); test: as above
[4] = target: FGFR1 (UniProt P11362); test: as above
[5] = target: FGFR3 (UniProt P22607); test: as above
[6] = system: Fer (mouse); test: as above
[7] = target: Fes (UniProt P07332); test: as above
[8] = target: Fyn (UniProt P06241); test: as above
[9] = target: Hck (UniProt P08631); test: as above
[10] = target: Jak2 (UniProt O60674); test: as above
[11] = target: MERTK (UniProt Q12866); test: as above
[12] = system: c-Abl (mouse); test: as above
[13] = system: c-Src; test: as above
[14] = target: Grb2 SH2 (UniProt P62993); test: SH2 binding enrichment of the phosphorylated peptide, bacterial display (enrichment ratio); higher = better substrate or ligand; peptides without Tyr show the background
[15] = target: SHP2-C SH2; test: as above
[16] = target: c-Src SH2; test: as above
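Throughout, for SH2 binding enrichment of the phosphorylated peptide, bacterial display: peptide library displayed on the E. coli surface as eCPX fusions, selected cells deep-sequenced, score is each peptide's frequency after selection divided by its frequency in the input.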
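Throughout, for phosphorylation enrichment, bacterial display: 11-residue human phosphosite peptides and single-mutation variants displayed on the E. coli surface, counted by deep sequencing, each peptide's frequency after selection divided by its frequency in the unselected input library; frequency after pTyr selection over input frequency; kinase dosed for 20-30% of maximal phosphorylation in three min.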

Sequence of FGFR1 (P11362 whole entry, looked up): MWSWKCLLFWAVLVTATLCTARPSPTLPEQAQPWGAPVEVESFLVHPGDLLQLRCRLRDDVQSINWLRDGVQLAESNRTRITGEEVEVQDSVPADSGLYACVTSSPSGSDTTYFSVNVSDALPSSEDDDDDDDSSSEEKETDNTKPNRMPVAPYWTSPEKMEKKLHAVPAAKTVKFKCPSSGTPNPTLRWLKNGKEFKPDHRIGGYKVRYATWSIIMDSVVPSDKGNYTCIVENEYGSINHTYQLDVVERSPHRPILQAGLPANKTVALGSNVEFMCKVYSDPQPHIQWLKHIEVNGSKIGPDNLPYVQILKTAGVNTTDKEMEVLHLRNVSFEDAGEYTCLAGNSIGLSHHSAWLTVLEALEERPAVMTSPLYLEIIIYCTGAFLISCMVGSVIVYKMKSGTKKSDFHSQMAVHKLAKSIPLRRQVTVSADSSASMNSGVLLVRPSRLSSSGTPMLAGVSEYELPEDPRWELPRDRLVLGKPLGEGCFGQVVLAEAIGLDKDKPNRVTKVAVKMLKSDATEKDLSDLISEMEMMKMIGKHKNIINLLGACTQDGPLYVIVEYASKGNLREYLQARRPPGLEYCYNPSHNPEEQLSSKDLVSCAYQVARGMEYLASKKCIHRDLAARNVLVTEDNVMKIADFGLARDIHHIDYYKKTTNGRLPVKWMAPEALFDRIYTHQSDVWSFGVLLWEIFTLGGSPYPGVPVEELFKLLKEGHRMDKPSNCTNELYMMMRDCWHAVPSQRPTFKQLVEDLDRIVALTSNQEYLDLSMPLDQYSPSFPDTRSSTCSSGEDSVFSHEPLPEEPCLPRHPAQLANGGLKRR
Sequence of Fes (P07332 whole entry, looked up): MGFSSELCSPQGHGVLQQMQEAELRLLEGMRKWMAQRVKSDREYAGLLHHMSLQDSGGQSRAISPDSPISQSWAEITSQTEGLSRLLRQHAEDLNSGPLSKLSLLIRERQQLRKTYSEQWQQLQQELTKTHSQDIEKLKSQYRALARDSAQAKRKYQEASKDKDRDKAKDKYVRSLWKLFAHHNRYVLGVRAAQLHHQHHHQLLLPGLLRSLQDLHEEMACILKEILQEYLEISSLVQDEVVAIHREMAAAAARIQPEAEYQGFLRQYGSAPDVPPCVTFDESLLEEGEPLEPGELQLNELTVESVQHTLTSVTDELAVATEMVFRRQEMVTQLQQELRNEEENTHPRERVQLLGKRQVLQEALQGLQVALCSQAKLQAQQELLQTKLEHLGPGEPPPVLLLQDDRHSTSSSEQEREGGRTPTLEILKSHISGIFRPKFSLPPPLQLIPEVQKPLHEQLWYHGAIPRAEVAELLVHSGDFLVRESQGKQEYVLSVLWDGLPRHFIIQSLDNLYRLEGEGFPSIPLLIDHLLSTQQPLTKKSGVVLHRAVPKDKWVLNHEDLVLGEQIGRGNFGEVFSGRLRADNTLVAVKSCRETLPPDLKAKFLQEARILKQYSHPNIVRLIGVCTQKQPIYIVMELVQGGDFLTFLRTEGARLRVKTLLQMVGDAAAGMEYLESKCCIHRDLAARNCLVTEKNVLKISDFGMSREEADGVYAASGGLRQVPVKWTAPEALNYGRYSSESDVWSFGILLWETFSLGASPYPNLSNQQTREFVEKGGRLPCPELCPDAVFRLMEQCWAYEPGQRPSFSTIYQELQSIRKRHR
Sequence of Jak2 (O60674 whole entry, looked up): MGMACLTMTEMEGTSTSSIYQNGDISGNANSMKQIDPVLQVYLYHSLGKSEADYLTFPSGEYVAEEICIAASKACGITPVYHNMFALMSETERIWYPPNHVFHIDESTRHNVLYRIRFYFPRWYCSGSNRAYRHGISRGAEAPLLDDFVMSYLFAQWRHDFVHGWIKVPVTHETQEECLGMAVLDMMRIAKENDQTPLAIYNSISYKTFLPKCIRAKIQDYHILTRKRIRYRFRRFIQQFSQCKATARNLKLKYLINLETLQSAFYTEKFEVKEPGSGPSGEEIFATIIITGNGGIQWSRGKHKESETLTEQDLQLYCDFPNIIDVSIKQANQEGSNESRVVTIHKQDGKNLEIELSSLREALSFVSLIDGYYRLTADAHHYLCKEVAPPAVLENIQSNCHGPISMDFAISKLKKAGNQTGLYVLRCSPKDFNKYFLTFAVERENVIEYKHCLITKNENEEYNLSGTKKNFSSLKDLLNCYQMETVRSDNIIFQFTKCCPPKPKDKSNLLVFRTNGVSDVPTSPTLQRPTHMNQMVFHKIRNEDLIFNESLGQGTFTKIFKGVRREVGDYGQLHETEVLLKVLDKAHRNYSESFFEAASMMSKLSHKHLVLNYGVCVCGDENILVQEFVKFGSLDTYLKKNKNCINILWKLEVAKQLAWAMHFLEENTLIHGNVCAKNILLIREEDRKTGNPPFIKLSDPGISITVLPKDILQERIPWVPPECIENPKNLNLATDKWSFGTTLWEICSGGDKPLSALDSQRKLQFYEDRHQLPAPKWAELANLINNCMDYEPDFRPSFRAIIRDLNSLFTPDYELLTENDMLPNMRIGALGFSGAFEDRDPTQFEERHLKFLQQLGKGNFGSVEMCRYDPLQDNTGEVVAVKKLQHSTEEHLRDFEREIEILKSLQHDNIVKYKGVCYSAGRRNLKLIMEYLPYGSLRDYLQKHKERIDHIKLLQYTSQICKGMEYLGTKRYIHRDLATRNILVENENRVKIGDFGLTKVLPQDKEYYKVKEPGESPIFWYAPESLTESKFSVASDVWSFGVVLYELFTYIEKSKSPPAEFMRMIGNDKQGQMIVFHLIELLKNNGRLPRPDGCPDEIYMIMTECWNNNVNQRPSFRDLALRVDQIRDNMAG
Sequence of MERTK (Q12866 whole entry, looked up): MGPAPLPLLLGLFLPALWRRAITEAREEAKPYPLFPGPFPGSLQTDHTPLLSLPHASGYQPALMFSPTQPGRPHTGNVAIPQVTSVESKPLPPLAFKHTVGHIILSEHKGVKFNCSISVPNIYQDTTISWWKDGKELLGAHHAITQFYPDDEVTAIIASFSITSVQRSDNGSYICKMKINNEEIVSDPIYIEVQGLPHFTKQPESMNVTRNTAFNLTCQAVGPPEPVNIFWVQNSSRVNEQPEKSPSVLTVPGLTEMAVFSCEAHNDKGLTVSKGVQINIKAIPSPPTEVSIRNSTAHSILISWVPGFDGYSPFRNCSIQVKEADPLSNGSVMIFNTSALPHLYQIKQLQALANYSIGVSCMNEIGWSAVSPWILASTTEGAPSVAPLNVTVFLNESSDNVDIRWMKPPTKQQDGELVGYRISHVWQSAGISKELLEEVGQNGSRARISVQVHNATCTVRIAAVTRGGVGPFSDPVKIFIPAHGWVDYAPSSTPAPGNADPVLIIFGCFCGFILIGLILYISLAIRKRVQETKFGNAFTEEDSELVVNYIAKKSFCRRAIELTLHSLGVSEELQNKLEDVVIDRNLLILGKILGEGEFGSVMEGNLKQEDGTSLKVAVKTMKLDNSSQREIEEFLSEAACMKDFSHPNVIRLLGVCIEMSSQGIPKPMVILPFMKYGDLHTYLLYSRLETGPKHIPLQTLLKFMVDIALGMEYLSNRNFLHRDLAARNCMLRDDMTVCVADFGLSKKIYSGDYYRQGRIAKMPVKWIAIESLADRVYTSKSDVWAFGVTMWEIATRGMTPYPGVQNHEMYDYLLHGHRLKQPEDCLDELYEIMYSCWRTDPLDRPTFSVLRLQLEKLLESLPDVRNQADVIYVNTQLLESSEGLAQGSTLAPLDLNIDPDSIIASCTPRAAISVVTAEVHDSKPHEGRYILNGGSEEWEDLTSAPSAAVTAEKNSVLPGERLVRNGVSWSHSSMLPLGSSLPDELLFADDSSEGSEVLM
Sequence of Hck (P08631 whole entry, looked up): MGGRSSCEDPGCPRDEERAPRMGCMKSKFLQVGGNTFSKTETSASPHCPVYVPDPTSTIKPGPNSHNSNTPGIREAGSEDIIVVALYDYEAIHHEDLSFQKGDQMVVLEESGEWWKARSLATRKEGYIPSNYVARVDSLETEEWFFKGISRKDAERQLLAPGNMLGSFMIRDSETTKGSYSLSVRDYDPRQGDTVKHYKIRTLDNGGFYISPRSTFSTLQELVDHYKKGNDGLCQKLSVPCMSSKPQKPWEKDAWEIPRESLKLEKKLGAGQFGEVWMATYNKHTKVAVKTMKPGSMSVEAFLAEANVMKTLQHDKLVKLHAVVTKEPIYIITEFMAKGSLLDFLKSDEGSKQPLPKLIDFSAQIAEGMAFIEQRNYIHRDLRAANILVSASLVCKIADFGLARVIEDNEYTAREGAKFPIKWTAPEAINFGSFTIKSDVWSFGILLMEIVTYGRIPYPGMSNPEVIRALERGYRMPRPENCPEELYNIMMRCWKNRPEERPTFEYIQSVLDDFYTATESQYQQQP
Sequence of Fyn (P06241 whole entry, looked up): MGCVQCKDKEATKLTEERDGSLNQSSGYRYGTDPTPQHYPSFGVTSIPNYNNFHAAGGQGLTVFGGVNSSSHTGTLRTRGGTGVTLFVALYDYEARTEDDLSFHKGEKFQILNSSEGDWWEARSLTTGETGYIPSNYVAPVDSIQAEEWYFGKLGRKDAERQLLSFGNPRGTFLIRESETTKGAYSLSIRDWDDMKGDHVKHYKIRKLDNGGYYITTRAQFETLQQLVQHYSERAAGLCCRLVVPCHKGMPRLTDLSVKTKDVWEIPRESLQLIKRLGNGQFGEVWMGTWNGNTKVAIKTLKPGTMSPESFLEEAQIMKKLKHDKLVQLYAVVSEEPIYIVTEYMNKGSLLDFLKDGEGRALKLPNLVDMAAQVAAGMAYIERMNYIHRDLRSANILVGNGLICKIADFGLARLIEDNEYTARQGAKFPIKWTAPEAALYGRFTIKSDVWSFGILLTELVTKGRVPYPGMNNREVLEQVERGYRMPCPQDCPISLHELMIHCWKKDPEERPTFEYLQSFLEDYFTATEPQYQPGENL

Row | SH2 binding enrichment [14] | SH2 binding enrichment [15] | SH2 binding enrichment [16] | Sequence | phosphorylation enrichment [1] | phosphorylation enrichment [2] | phosphorylation enrichment [3] | phosphorylation enrichment [4] | phosphorylation enrichment [5] | phosphorylation enrichment [6] | phosphorylation enrichment [7] | phosphorylation enrichment [8] | phosphorylation enrichment [9] | phosphorylation enrichment [10] | phosphorylation enrichment [11] | phosphorylation enrichment [12] | phosphorylation enrichment [13]
1 | 1.12 | 0.794 | 0.591 | IMVFVYSRVFQ [ADRB2_Y219] | 0.961 | 0.554 | 0.484 | 0.445 | 0.786 | 0.487 | 1.16 | 0.445 | 0.435 | 0.93 | 0.448 | 0.844 | 0.486
2 | 0.927 | 1.71 | 1.93 | VIGRMYDYHVL [RPF2_Y109] | 0.966 | 1.33 | 1.7 | 6.62 | 3.7 | 9.05 | 0.859 | 0.504 | 0.538 | 0.976 | 5.17 | 0.65 | 0.643
3 | 0.704 | 0.665 | 0.477 | YECKWYIPLTD [BCR_Y756_D752E] | 1.48 | 0.843 | 0.774 | 0.812 | 1.1 | 0.657 | 1.56 | 0.469 | 0.585 | 1.48 | 0.922 | 1 | 0.576
4 | 0.944 | 0.477 | 0.333 | QQLQGYIPSNY [FRK_Y99] | 0.623 | 0.473 | 0.437 | 0.314 | 0.49 | 0.329 | 0.671 | 0.356 | 0.633 | 0.647 | 0.475 | 0.47 | 0.382

More lines, now with the values behind:

Row | Sequence | SH2 binding enrichment [14] | SH2 binding enrichment [15] | SH2 binding enrichment [16] | phosphorylation enrichment [1] | phosphorylation enrichment [2] | phosphorylation enrichment [3] | phosphorylation enrichment [4] | phosphorylation enrichment [5] | phosphorylation enrichment [6] | phosphorylation enrichment [7] | phosphorylation enrichment [8] | phosphorylation enrichment [9] | phosphorylation enrichment [10] | phosphorylation enrichment [11] | phosphorylation enrichment [12] | phosphorylation enrichment [13]
5 | SVNCTYSPALN [TP53_Y126_T123N] | 0.722 | 0.544 | 0.381 | 0.957 | 0.654 | 0.613 | 0.484 | 0.725 | 0.521 | 1.01 | 0.735 | 0.851 | 0.77 | 0.478 | 0.622 | 0.849
6 | PLCPDYQEPSR [DDR2_Y481_R478C] | 0.86 | 0.781 | 0.786 | 3.5 | 1.43 | 2.01 | 0.643 | 1.46 | 0.999 | 2 | 1.12 | 1.01 | 1.23 | 0.854 | 0.896 | 0.61
7 | EFRFIYMAVQH [PTPN11_Y515_Q510E_YF] | 0.912 | 0.86 | 0.596 | 1.31 | 0.881 | 0.737 | 0.555 | 0.864 | 1.01 | 1.35 | 1.42 | 1.63 | 1.18 | 0.519 | 1.16 | 2.05
8 | QEKKGYFEDRC [GLUL_Y336_R341C] | 1.5 | 0.948 | 0.589 | 1.06 | 0.522 | 0.631 | 0.804 | 0.716 | 0.519 | 1.29 | 0.609 | 0.655 | 1 | 0.799 | 0.843 | 0.613
